Data published in patent publication US20210095007A1 (MIT, published 2021).
Where a chain is given by its changes, count along the chain named.

B1: 4G7 wild type (parent mouse monoclonal antibody 4G7) (antibody, V domains shown)
VH: EVQLQQSGPELEMPGASVKISCKASGSSFTGFSMNWVKQSNGKSLEWIGNIDTYYGGTTYNQKFKGKATLTVDKSSSTAYMQLKSLTSEDSAVYYCARSAYYGSTFAYWGQGTLVTVSS
VL: DIVMTQSPASLSASVGETVTITCRASENIYSYLAWYQQKQGKSPQLLVYNAKTLIEGVPSRFSGSGSGTQFSLKINSLQPEDFGSYFCQHHFGTPFTFGSGTELEIK
B2: 2G4 wild type (parent mouse monoclonal antibody 2G4) (antibody, V domains shown)
VH: EVQLQQSGGGLMQPGGSMKLSCVASGFTFSNYWMNWVRQSPEKGLEWVAEIRLKSNNYATHYAESVKGRFTISRDDSKRSVYLQMNTLRAEDTGIYYCTRGNGNYRAMDYWGQGTSVTVSS
VL: DIVMTQSPASLSVSVGETVSITCRASENIYSSLAWYQQKQGKSPQLLVYSATILADGVPSRFSGSGSGTQYSLKINSLQSEDFGTYYCQHFWGTPYTFGGGTKLEIK
B3: 2G4.3 (antibody, V domains shown)
VH: EVQLLESGGGLVQPGGSLRLSCVASGFTFSNYWMNWVRQAPGKGLEWLGFIRLKSNNYATHYSASVKGRFTISRDKSKSTLYLQMNTLQAEDSAIYYCTRGNGNYRAMDYWGQGTLVTVSS
VL: DIVMTQSPSSLSASVGDRVTITCRASENIYSSLAWYQQKPGKSPQLLVYSATILADGVPSRFSGSGSGTQYTLTISSLQPEDFATYYCQHFWGTPYTFGGGTKVEIK
B4: 2G4.6 (antibody, V domains shown)
VH: B3 VH with G49A, F50E
VL: B3 VL
B5: 4G7.10 (antibody, V domains shown)
VH: QVQLVQSGAEVKKPGSSVKVSCKASGSSFTGFSMNWVRQAPGQSLEWIGNIDTYYGGTTYNGKFKGRVTLTVDKSTSTAYMELSSLRSEDTAVYYCARSAYYGSTFAYWGQGTLVTVSS
VL: DIQMTQSPSSLSASVGDRVTITCRASENIYSYLAWYQQKPGKSPKLLVYNAKTLIEGVPSRFSGSGSGTDFTFTISSLQPEDIATYFCQHHFGTPFTFGQGTKVEIK
B6: 4G7.2 (antibody, V domains shown)
VH: B5 VH with S44G, I48M, L70I, V72A
VL: B5 VL
B7: 4G7.3 (antibody, V domains shown)
VH: B5 VH with S44G, I48M, L70I, V72A
VL: B5 VL with Q3V, D70Q, T72S, F73L, Q100S
B8: 4G7.12 (antibody, V domains shown)
VH: B5 VH
VL: B5 VL with Q3V, K52V, D70Q, T72S, F73L, Q100S
B9: 4G7.1 (antibody, V domains shown)
VH: B5 VH with S44G, I48M, L70I, V72A
VL: B5 VL with S43A, F87Y
B10: 4G7.11 (antibody, V domains shown)
VH: B5 VH
VL: B5 VL with Q3V, D70Q, T72S, F73L, Q100S
B11: 4G7.9 (antibody, V domains shown)
VH: B5 VH
VL: B5 VL with S43A, F87Y
B12: 13C6.1 (antibody, V domains shown)
VH: QLTLKESGPTLVKPTQTLSLTCTFSGFSLSTSGVGVGWFRQPPGKALEWLALIWWDDDKYYSPSLKSRLTITKDTSKNQVVLTMTNMDPVDTATYYCARRDPFGYDNAMGYWGQGTTVTVSS
VL: DIVMTQSPSFLSASVGDRVTITCKASQNVGTAVAWYQQKPGKAPKLLIYSASNRYSGVPSRFSGSGSGTDFTLTISSLQPEDFATYFCQQYSSYPLTFGGGTKLEIK
B13: 13C6 wild type (parent mouse monoclonal antibody 13C6) (antibody, V domains shown)
VH: QLTLKESGPGILKPSQTLSLTCSLSGFSLSTSGVGVGWFRQPSGKGLEWLALIWWDDDKYYNPSLKSQLSISKDFSRNQVFLKISNVDIADTATYYCARRDPFGYDNAMGYWGQGTSVTVSS
VL: DIVMTQSQKFMSTSVGDRVSLTCKASQNVGTAVAWYQQKPGQSPKLLIYSASNRYTGVPDRFTGSGSGTDFTLTISNMQSEDLADYFCQQYSSYPLTFGAGTKLELR

Columns and labels:
[1] = target: T1, Ebola GPdTM (IBT Bioservices) (Ebola virus, UniProt Q05320 33-650); assay: ELISA, GPdTM coated at 1 µg/mL, anti-human IgG Fc-HRP detection
T1 sequence: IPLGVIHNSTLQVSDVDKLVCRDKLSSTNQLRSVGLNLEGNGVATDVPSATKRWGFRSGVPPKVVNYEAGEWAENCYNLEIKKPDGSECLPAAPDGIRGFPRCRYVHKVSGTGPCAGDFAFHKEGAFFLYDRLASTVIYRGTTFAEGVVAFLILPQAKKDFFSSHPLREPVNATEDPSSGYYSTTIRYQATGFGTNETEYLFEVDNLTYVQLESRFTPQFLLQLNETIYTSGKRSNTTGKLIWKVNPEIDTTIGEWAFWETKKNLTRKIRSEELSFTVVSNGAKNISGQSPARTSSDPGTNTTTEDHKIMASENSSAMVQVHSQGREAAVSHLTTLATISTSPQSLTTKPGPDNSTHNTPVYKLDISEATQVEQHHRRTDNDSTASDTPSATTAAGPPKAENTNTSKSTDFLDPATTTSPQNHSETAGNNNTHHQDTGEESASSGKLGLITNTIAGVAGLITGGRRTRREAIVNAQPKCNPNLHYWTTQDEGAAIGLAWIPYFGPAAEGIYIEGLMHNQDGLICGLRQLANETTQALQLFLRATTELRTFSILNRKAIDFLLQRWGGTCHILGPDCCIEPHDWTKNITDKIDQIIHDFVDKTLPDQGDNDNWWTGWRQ

[2] = target: T2, Ebola virus glycoprotein on Ebola virus Mayinga 1976 strain (Zaire Ebola virus, Mayinga 1976 strain, UniProt Q05320 33-676); assay: cell-based or functional assay
T2 sequence: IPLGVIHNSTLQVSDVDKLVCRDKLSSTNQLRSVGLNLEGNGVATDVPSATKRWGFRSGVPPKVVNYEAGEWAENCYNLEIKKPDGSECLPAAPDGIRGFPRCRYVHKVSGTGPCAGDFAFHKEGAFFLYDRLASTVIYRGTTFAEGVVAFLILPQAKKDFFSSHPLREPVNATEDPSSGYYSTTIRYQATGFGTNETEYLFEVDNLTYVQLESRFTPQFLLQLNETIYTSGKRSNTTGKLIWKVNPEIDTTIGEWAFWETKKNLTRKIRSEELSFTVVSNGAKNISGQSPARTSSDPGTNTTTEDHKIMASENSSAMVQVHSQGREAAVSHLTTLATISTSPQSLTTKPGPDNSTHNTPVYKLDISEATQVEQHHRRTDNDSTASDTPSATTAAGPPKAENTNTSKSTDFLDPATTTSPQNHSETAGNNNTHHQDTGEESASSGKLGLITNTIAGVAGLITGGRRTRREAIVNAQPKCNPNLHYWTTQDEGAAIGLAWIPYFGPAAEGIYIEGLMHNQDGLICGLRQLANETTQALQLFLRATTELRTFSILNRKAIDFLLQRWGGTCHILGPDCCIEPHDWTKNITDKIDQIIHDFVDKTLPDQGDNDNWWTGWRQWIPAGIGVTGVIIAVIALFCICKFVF

[3] = target: T3, Ebola virus glycoprotein on Ebola virus Kikwit 1995 strain (Zaire Ebola virus, Kikwit 1995 strain, UniProt P87666 33-676); assay: cell-based or functional assay
T3 sequence: T2 sequence with V278A, G282R, S345P, L346P, S390P, P398L, S408G, F411L, T467A, I512T

[4] = target: Ebola virus glycoprotein on Ebola virus Makona 2014 strain (Zaire Ebola virus, Makona 2014 strain); assay: cell-based or functional assay

Binder | EC50 [1] [nM] | plaque reduction neutralization titre (Vero E6 cells, 200 pfu) [2] [µg/mL] | plaque reduction neutralization titre (Vero E6 cells, 200 pfu) [3] [µg/mL] | plaque reduction neutralization titre (Vero E6 cells, 200 pfu) [4] [µg/mL]
B1 | 0.0725 | – | – | –
B2 | 0.154 | – | – | –
B3 | 0.129 | – | – | –
B4 | 0.109 | 2 | 4 | 2
B5 | 0.12 | – | – | –
B6 | 0.0952 | – | – | –
B7 | 0.176 | – | – | –
B8 | 0.0888 | – | – | –
B9 | 0.182 | – | – | –
B10 | 0.145 | – | – | –
B11 | 0.0997 | 1 | 1 | 1
B12 | 0.136 | > 50 | > 50 | > 50
B13 | 0.0747 | – | – | –
